Data taken from article PMC4525180 (Nature communications, 2015).
Each block holds one binder with its values, some of them ahead of it.

B4: Rad55–Rad57 complex (complex, S. cerevisiae)
chain 1: MSLGIPLSQLIVESPKPLSSGITGLDEILNLGFQARSIYEIFGPPGIGKTNFGIQLVCNSLEGIQQSEINDDKILWIETFQEMPINILRERFQKFKIVEENVKRVRITKFGQLLYFFQNLFKLSQSVRYKLVIIDGFSQLVCDHLCTLSKRGGGMIDKTIHELKCRHLILIFTVMTKYTHSTGSTIIVLNDCMNTAFQSNEFESLEEYYEILDDGSNFFVNSNNERRKNNVHILKSALVANIAMGSKDSTWEVFLRDRIGLFRDWNEQVDETVFVKSKRVKASSSQSNEGCTTIKEMRINKRNFENLRIAIVFNLHGEDRKREGRNLKRSRSSDDRNYIVKFDFDKATGQLRDIIDLKPDTANIASFPTLSTSSSSCSQVFNNIDSNDNPLPNAEGKEEIIYDSEG
chain 2: MPRALSIKFDNTYMDLYDELPESKLLYDEEFSYLLDAVRQNGVCVVDFLTLTPKELARLIQRSINEVFRFQQLLVHEYNEKYLEICEKNSISPDNGPECFTTADVAMDELLGGGIFTHGITEIFGESSTGKSQLLMQLALSVQLSEPAGGLGGKCVYITTEGDLPTQRLESMLSSRPAYEKLGITQSNIFTVSCNDLINQEHIINVQLPILLERSKGSIKLVIIDSISHHLRVELQNKSFRESQENKNYLDRMAEKLQILAHDYSLSVVVANQVGDKPLANSPVAHRTYVTDYDYQLGWLVGWKNSTILYRQMNSLLGASSNNDEILSDDEDYMLIERVMSTVNDRNYDFFSKKKPPIIENKTVERNSSSPISRQSKKRKFDYRVPNLGLTWSNHVSTRILLQKSFKASTIIQRGEAHLYKGGDSASFWQVKRTMKVVYSTFAKPGQIAYQITKRGIETA

Columns and labels:
Conditions in all cases: both partners purified
Rad55–Rad57 complex [1] = target: B4; experiment: pull-down; pull-down with Rad51; set-up only in Supplementary Fig. 2b; also with Csm2–Psy3 added to Rad55–Rad57 and Rad51
Rad55–Rad57 complex [2] = target: B4; experiment: pull-down; His-tagged Rad55–Rad57 (0.5 μg) with Csm2–Psy3 (0.5 μg), captured on Ni-NTA resin through (His)6 on Rad55; buffer C (20 mM MOPS pH 7.2, 150 mM KCl, 1 mM ATP, 2 mM MgCl2, 15 mM imidazole), 4 °C, washes with 200 mM KCl; SDS-PAGE, Coomassie
Rad55–Rad57 complex [3] = target: B4; experiment: pull-down; Shu complex with Rad55–Rad57; set-up only in Supplementary Fig. 2a
GST-tagged Rad52 = GST-tagged Rad52 (S. cerevisiae, UniProt P06778 1-471); experiment: pull-down; GST–Rad52 with one partner, captured on glutathione resin; buffer with 100 mM KCl, no imidazole, 4 °C; anti-FLAG immunoblot (FLAG on Rad57 and Psy3)
Chain of GST-tagged Rad52 (P06778 whole entry): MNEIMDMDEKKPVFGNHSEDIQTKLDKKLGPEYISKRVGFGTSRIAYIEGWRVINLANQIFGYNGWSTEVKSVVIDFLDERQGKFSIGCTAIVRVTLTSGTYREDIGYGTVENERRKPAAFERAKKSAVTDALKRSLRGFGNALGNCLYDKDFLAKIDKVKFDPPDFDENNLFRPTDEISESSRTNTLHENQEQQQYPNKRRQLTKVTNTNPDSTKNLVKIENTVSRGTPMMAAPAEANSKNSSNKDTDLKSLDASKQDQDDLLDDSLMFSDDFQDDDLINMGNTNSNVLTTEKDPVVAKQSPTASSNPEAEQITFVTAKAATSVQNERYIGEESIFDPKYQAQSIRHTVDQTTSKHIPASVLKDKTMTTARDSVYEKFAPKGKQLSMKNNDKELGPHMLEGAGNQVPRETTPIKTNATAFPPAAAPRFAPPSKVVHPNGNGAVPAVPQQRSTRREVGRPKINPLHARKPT

binding result (Rad55–Rad57 complex [1]): binds
B1: Rad51 (natural protein, S. cerevisiae, UniProt P25454 1-400, looked up)
chain: MSQVQEQHISESQLQYGNGSLMSTVPADLSQSVVDGNGNGSSEDIEATNGSGDGGGLQEQAEAQGEMEDEAYDEAALGSFVPIEKLQVNGITMADVKKLRESGLHTAEAVAYAPRKDLLEIKGISEAKADKLLNEAARLVPMGFVTAADFHMRRSELICLTTGSKNLDTLLGGGVETGSITELFGEFRTGKSQLCHTLAVTCQIPLDIGGGEGKCLYIDTEGTFRPVRLVSIAQRFGLDPDDALNNVAYARAYNADHQLRLLDAAAQMMSESRFSLIVVDSVMALYRTDFSGRGELSARQMHLAKFMRALQRLADQFGVAVVVTNQVVAQVDGGMAFNPDPKKPIGGNIMAHSSTTRLGFKKGKGCQRLCKVVDSPCLPEAECVFAIYEDGVGDPREEDE

binding result (Rad55–Rad57 complex [2]): binds
B2: Csm2–Psy3 heterodimer (complex, S. cerevisiae)
chain 1: MEYEDLELITIWPSPTKNKLCQFIKQNLSKEHVVTQLFFIDATSSFPLSQFQKLVPPTLPENVRIYENIRINTCLDLEELSAITVKLLQILSMNKINAQRGTEDAVTEPLKIILYINGLEVMFRNSQFKSSPQRSHELLRDTLLKLRVMGNDENENASIRTLLEFPKEQLLDYYLKKNNNTRTSSVRSKRRRIKNGDSLAEYIWKYYADSLFE
chain 2: MEVLKNIRIYPLSNFITSTKNYINLPNELRNLISEEQESKLGFLHIIESDFKPSVALQKLVNCTTGDEKILIIDIVSIWSQQKQRQHGAIYMNSLSCINITGLIVFLELLYDSPMDALRRCQVDNFNFQLRGIVIDNLSFLNFESDKNYDVINLSKFEKLFKILRKLREFLGCWIITKSFPTDFYNGIENTLVDKWSIKRKSGVTLYPTKLPDSYMKGMDLIIYREVVDGRPQYRRIAALEE

binding result (Rad55–Rad57 complex [3]): binds
B3: Shu complex (Csm2–Psy3–Shu1–Shu2) (complex, S. cerevisiae)
chain 1: MEYEDLELITIWPSPTKNKLCQFIKQNLSKEHVVTQLFFIDATSSFPLSQFQKLVPPTLPENVRIYENIRINTCLDLEELSAITVKLLQILSMNKINAQRGTEDAVTEPLKIILYINGLEVMFRNSQFKSSPQRSHELLRDTLLKLRVMGNDENENASIRTLLEFPKEQLLDYYLKKNNNTRTSSVRSKRRRIKNGDSLAEYIWKYYADSLFE
chain 2: MEVLKNIRIYPLSNFITSTKNYINLPNELRNLISEEQESKLGFLHIIESDFKPSVALQKLVNCTTGDEKILIIDIVSIWSQQKQRQHGAIYMNSLSCINITGLIVFLELLYDSPMDALRRCQVDNFNFQLRGIVIDNLSFLNFESDKNYDVINLSKFEKLFKILRKLREFLGCWIITKSFPTDFYNGIENTLVDKWSIKRKSGVTLYPTKLPDSYMKGMDLIIYREVVDGRPQYRRIAALEE
chain 3: MQFEERLQQLVESDWSLDQSSPNVLVIVLGDTARKYVELGGLKEHVTTNTVAGHVASRERVSVVFLGRVKYLYMYLTRMQAQANGPQYSNVLVYGLWDLTATQDGPQQLRLLSLVLRQCLSLPSKVEFYPEPPSSSVPARLLRFWDHIIR
chain 4: MSKDVIEYSKLFAKLVNTNDDTKLDDTIASFLYYMFPRELFIRAISLLESSDMFIYILDRVHNKEGNEHTSLIDVLVDEFYKGSSNSLLEYRLIVKDTNDGAPPILVDIAHWFCSCEEFCKYFHEALEKTDEKEELHDVLINEVDDHLQFSDDRFAQLDPHSLSKQWYFKFDKVCCSHLLAFSILLRSSINVLKFFTVNSNKVFVIAIDNIDEWLNLHINIVE

Binder: B4
binding result (GST-tagged Rad52): binds
